# Non-standard residues stand in square brackets, D forms with d. Residues, ends and D or L forms follow the SMILES beside them. No end group written: not given here. 1Nal = N[C@@H](Cc1cccc2ccccc12)C(=O)O; β3hI = CC[C@H](C)[C@H](N)CC(=O)O; Nle = CCCC[C@H](N)C(=O)O; Aib = CC(C)(N)C(=O)O
# T1: human PTH-1 receptor (Homo sapiens, UniProt Q03431)
# T1 construct: expressed in transfected cells; host or cells: HEK-293
# T1 sequence (Q03431 27-593): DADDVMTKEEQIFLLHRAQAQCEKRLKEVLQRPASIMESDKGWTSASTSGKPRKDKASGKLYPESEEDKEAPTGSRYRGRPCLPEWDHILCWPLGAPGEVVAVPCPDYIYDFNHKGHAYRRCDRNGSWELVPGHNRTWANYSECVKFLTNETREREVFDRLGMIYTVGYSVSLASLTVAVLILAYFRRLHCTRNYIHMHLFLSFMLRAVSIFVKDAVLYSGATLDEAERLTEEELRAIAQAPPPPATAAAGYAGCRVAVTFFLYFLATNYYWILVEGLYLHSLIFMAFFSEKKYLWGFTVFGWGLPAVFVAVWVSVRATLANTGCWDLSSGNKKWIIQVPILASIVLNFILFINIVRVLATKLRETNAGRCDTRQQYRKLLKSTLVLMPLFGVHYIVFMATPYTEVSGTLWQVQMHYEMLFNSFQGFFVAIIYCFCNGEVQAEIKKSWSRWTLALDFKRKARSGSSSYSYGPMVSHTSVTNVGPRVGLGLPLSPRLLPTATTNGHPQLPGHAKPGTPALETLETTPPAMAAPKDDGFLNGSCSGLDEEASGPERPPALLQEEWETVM
# Key:
# human PTH-1 receptor = molecular target: T1, human PTH-1 receptor; assay: Reporter gene assay (CRE-luciferase) for agonist activity in transiently transfected HEK-293 cells; assay type: cell-based; conditions: for hPTHR-2/hPTHR-1: Table 3, ratio of EC50 values, selectivity for hPTH-1 receptor over hPTH-2 receptor
# Outline: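 Selectivity came from luciferase transcriptional reporter assays expressing human PTH-2 receptor. PTH-1 agonism used transiently transfected HEK-293 cells carrying SV40-promoter receptor and cAMP-responsive-element luciferase; 4-5 h compound exposure, lysis, luminescence, non-linear-regression EC50/efficacy; ≥3 independent runs, PTH (1-34) control each.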
# human PTH-2 receptor = molecular target: T2, human PTH-2 receptor (Homo sapiens, UniProt P49190); assay: Luciferase-based transcriptional reporter gene assay for selectivity; assay type: cell-based
# T2 construct: expressed in transfected cells
# Description: Agonist activity of compounds on the human PTH-1 receptor was determined in a reporter gene assay by transiently transfecting HEK-293 cells with plasmids encoding human PTH-1 receptor under control of the SV40 promoter and a luciferase reporter gene under control of cAMP responsive elements (CRE). See Himmler et al, J. Recept. Res. 13 (1993) 79-94, for further guidance on this assay. Transfected cells were exposed to serial dilutions of compounds for 4-5 hours followed by lysis of cells, determination of luciferase activity, and determination of compound efficacies and EC50 values through non-linear regression.
# PTH (1-34) was used as an internal control in each experiment and compounds were tested in at least three independent experiments. To determine selectivity, compounds were tested in luciferase-based transcriptional reporter gene assays expressing the human PTH-2 receptor.
# [1] = molecular target: human parathyroid hormone receptor 2 (human, UniProt P49190); assay: cell-based or functional assay
# [2] = molecular target: human parathyroid hormone receptor 1 (human, UniProt Q03431); assay: cell-based or functional assay
# T2 sequence (P49190 25-550): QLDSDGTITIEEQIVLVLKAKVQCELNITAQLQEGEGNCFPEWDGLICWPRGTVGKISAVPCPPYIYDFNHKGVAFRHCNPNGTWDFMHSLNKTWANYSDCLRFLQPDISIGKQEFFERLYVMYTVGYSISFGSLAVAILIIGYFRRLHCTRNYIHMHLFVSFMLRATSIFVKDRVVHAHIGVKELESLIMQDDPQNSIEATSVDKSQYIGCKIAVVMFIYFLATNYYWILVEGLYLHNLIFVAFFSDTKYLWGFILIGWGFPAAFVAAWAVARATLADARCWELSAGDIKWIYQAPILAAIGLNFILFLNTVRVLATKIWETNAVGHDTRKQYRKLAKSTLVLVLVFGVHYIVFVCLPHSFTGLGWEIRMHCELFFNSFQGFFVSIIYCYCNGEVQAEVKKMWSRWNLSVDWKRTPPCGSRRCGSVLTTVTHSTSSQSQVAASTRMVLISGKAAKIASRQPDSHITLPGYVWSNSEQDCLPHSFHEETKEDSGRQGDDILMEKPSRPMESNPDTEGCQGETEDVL
Molecule,EC50 (human PTH-1 receptor) [nM],hPTHR-2/hPTHR-1 (human PTH-1 receptor),EC50 (human PTH-2 receptor) [nM],"hPTHR-2 EC50 (nM), luciferase reporter gene assay [1] [nM]","hPTHR-1 EC50 (nM), CRE-luciferase reporter gene assay [2] [nM]"
"CCCC[C@H](NC(=O)[C@H](CC(C)C)NC(=O)[C@H](CCC(N)=O)NC(=O)[C@@H](NC(=O)[C@H](CCC(=O)O)NC(=O)[C@H](CO)NC(=O)[C@@H](NC(=O)[C@@H](N)CO)C(C)C)[C@@H](C)CC)C(=O)N[C@@H](Cc1c[nH]cn1)C(=O)N[C@@H](CC(N)=O)C(=O)N[C@@H](CC(C)C)C(=O)NCC(=O)N[C@@H](CCCCN)C(=O)N[C@@H](Cc1c[nH]cn1)C(=O)N[C@@H](CC(C)C)C(=O)N[C@@H](CC(N)=O)C(=O)N[C@@H](CO)C(=O)N[C@H](CC(=O)N[C@@H](CCC(=O)O)C(=O)N[C@@H](CCCNC(=N)N)C(=O)N[C@H](C(=O)N[C@@H](CCC(=O)O)C(=O)N[C@@H](Cc1cccc2ccccc12)C(=O)N[C@@H](CC(C)C)C(=O)N[C@@H](CCCNC(=N)N)C(=O)N[C@@H](CCCCN)C(=O)N[C@@H](CC(C)C)C(=O)N[C@@H](CC(C)C)C(=O)N[C@@H](CCC(N)=O)C(=O)N[C@@H](CC(=O)O)C(=O)N[C@H](C(=O)N[C@@H](Cc1c[nH]cn1)C(=O)N[C@@H](CC(N)=O)C(=O)N[C@@H](CCCCN)C(N)=O)C(C)C)C(C)C)[C@@H](C)CC [SEQ ID NO: 30, [Nle^8, β-hIle^18,1-Nal^23, Leu^27, Lys^34] hPTH (1-34)-NH2] (H-SVSEIQL[Nle]HNLGKHLNS[β3hI]ERVE[1Nal]LRKLLQDVHNK-NH2; N-terminus assumed)",0.1,173,17,,
"CCCC[C@H](NC(=O)[C@H](CC(C)C)NC(=O)[C@H](CCC(N)=O)NC(=O)[C@@H](NC(=O)[C@H](CCC(=O)O)NC(=O)[C@H](CO)NC(=O)[C@@H](NC(=O)C(C)(C)N)C(C)C)[C@@H](C)CC)C(=O)N[C@@H](Cc1c[nH]cn1)C(=O)N[C@@H](CO)C(=O)N[C@@H](CC(C)C)C(=O)NCC(=O)N[C@@H](CCCCN)C(=O)N[C@@H](Cc1c[nH]cn1)C(=O)N[C@@H](CC(C)C)C(=O)N[C@@H](CCCCN)C(=O)N[C@@H](CO)C(=O)N[C@H](CC(=O)N[C@@H](CCC(=O)O)C(=O)N[C@@H](CCCNC(=N)N)C(=O)N[C@H](C(=O)N[C@@H](CCC(=O)O)C(=O)N[C@@H](Cc1cccc2ccccc12)C(=O)N[C@@H](CC(C)C)C(=O)N[C@@H](CCCNC(=N)N)C(=O)N[C@@H](CCCCN)C(=O)N[C@@H](CC(C)C)C(=O)N[C@@H](CC(C)C)C(=O)N[C@@H](CCC(N)=O)C(=O)N[C@@H](CCCNC(=N)N)C(=O)N[C@H](C(=O)N[C@@H](Cc1c[nH]cn1)C(=O)N[C@@H](CCC(=O)O)C(=O)N[C@@H](Cc1ccccc1)C(N)=O)C(C)C)C(C)C)[C@@H](C)CC [SEQ ID NO: 38, [Aib^1, Nle^8, Ser^10, Lys^16, β-hIle^18,1-Nal^23, Leu^27, Arg^30, Glu^33] hPTH (1-34)-NH2] (H-[Aib]VSEIQL[Nle]HSLGKHLKS[β3hI]ERVE[1Nal]LRKLLQRVHEF-NH2)",0.09,61,6,,
"[Aib]VSEIQL[Nle]HNLGKHLNS[β3hI]ERVE[1Nal]LRKLLQDVHNF-NH2 [[Aib^1, Nle^8, β-hIle^18, 1-Nal^23, Leu^27] hPTH (1-34)-NH2]",,,,16,0.04
"SVSEIQL[Nle]HNLGKHLKS[β3hI]ERVE[1Nal]LRKLLQRVHNF-NH2 [[Nle^8, Lys^16, β-hIle^18, 1-Nal^23, Leu^27, Arg^30] hPTH (1-34)-NH2]",,,,14,0.14
"[Aib]VSEIQL[Nle]HSLGKHLKS[β3hI]ERVE[1Nal]LRKLLQRVHEF-NH2 [[Aib^1, Nle^8, Ser^10, Lys^16, β-hIle^18, 1-Nal^23, Leu^27, Arg^30, Glu^33] hPTH (1-34)-NH2]",,,,6,0.09
"[Aib]VSEIQL[Nle]HNLGKHLKS[β3hI]ERVE[1Nal]LRKLLQRVHEF-NH2 [[Aib^1, Nle^8, Lys^16, β-hIle^18, 1-Nal^23, Leu^27, Arg^30, Glu^33] hPTH (1-34)-NH2]",,,,6,0.09
"SVSEIQL[Nle]HSLGKHLKS[β3hI]ERVE[1Nal]LRKLLQRVHEF-NH2 [[Nle^8, Ser^10, Lys^16, β-hIle^18, 1-Nal^23, Leu^27, Arg^30, Glu^33] hPTH(1-34)-NH2]",,,,8,0.12
"SVSEIQL[Nle]HNLGKHLKS[β3hI]ERVE[1Nal]LRKLLQRVHEF-NH2 [[Nle^8, Lys^16, β-hIle^18, 1-Nal^23, Leu^27, Arg^30, Glu^33] hPTH (1-34)-NH2]",,,,14,0.09

# Source: patent publication US20110195900A1, “PEPTIDIC PTH RECEPTOR AGONISTS” (FERRING B.V., priority 2008, published 2011)
